Assay results: article PMC4287381 (Virology, 2009)

Biological target: GST-p53 C-terminal domain (residues 300–393) (human, UniProt P04637 300-393)
Assay: pull-down

GST-p53 C-terminal domain (residues 300–393), sequence (P04637 300-393): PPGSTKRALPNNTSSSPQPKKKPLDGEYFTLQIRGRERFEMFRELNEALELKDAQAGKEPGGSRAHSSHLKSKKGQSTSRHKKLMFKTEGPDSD

B1: Full-length EBNA3C, in vitro translated, 35S-labelled (natural protein)
chain: MESFEGQGDSRQSPDNERGDNVQTTGEHDQDPGPGPPSSGASERLVPEESYSRDQQPWGQSRGDENRGWMQRIRRRRRRRAALSGHLLDTEDNVPPWLPPHDITPYTARNIRDAACRAVKQSHLQALSNLILDSGLDTQHILCFVMAARQRLQDIRRGPLVAEGGVGWRHWLLTSPSQSWPMGYRTATLRTLTPVPNRVGADSIMLTATFGCQNAARTLNTFSATVWTPPHAGPREQERYAREAEVRFLRGKWQRRYRRIYDLIELCGSLHHIWQNLLQTEENLLDFVRFMGVMSSCNNPAVNYWFHKTIGNFKPYYPWNAPPNENPYHARRGIKEHVIQNAFRKAQIQGLSMLATGGEPRGDATSETSSDEDTGRQGSDVELESSDDELPYIDPNMEPVQQRPVMFVSRVPAKKPRKLPWPTPKTHPVKRTNVKTSDRSDKAEAQSTPERPGPSEQSSVTVEPAHPTPVEMPMVILHQPPPVPKPVPVKPTPPPSRRRRGACVVYDDDVIEVIDVETTEDSSSVSQPNKPHRKHQDGFQRSGRRQKRAAPPTVSPSDTGPPAVGPPAAGPPAAGPPAAGPPAAGPPAAGPPAAGPRILAPLSAGPPAAGPHIVTPPSARPRIMAPPVVRMFMRERQLPQSTGRKPQCFWEMRAGREITQMQQEPSSHLQSATQPTTPRPSWAPSVCALSVMDAGKAQPIESSHLSSMSPTQPISHEEQPRYEDPDAPLDLSLHPDVAAQPAPQAPYQGYQEPPAPQAPYQGYQEPPPPQAPYQGYQEPPAHGLQSSSYPGYAGPWTPRSQHPCYRHPWAPWSQDPVHGHTQGPWDPRAPHLPPQWDGSAGHGQDQVSQFPHLQSETGPPRLQLSLVPLVSSSAPSWSSPQPRAPIRPIPTRFPPPPMPLQDSMAVGCDSSGTACPSMPFASDYSQGAFTPLDINATTPKRPRVEESSHGPARCSQATAEAQEILSDNSEISVFPKDAKQTDYDASTESELD
modifications: 35S methionine label
In the case of B1, the “fold interaction against the DNA binding domain of p53 (residues 100–300)” value is reported as 1.7 fold.
